According to publication PMC10397247:
One block for each binder: values may come before it.

Assays:
Test in all cases: two-hybrid library CCNG1;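 further: natural log of median RNA to DNA barcode read ratio; higher means stronger binding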
4H568-bH = target: T1, 4H568-bH
T1 chain: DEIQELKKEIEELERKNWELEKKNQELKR

4H607-bH = target: T2, 4H607-bH
T2 chain: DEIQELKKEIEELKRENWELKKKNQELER

4H797-bH = target: T3, 4H797-bH
T3 chain: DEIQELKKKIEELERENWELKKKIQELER

4H883-bH = target: T4, 4H883-bH
T4 chain: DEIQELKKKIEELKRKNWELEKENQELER

4H72-bH = target: T5, 4H72-bH
T5 chain: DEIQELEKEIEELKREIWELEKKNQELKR

4H906-bN = target: T6, 4H906-bN
T6 chain: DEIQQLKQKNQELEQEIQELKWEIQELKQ

4H918-bH = target: T7, 4H918-bH
T7 chain: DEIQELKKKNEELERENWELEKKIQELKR

4H967-bH = target: T8, 4H967-bH
T8 chain: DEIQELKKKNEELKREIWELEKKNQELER

4H953-bH = target: T9, 4H953-bH
T9 chain: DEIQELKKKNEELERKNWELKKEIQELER

4H462-bH = target: T10, 4H462-bH
T10 chain: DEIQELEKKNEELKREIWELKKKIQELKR

4H687-bH = target: T11, 4H687-bH
T11 chain: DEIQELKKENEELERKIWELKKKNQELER

O9-bN = target: T12, O9-bN
T12 chain: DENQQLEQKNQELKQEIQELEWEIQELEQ

O8-bN = target: T13, O8-bN
T13 chain: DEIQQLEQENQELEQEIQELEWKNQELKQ

interaction score (4H568-bH): 0.229
interaction score (4H607-bH): -0.483
interaction score (4H797-bH): -0.33
interaction score (4H883-bH): -0.231
interaction score (4H72-bH): 0.335
interaction score (4H906-bN): -2.48
interaction score (4H918-bH): 0.264
interaction score (4H967-bH): -0.847
interaction score (4H953-bH): -0.0754
interaction score (4H462-bH): 0.452
interaction score (4H687-bH): 1.31
B1: 4H462-bH (peptide)
chain: DEIQELEKKNEELKREIWELKKKIQELKR

interaction score (O9-bN): -0.872
interaction score (O8-bN): 0.371
B2: O8-bN (peptide)
chain: DEIQQLEQENQELEQEIQELEWKNQELKQ
